Assay results: US20180155451A1 (published 2018)

T1: FcγRIIa H (FcγRIIa type H, His at position 131), extracellular domain with C-terminal His tag (human, UniProt P12318 34-217)
T1 construct: extracellular domain; Expressed in FreeStyle293 cells; analyte in the Biacore assay; also called FcgRIIa H; 2aH; not shown: His tag at the C terminus
T1 sequence (looked up): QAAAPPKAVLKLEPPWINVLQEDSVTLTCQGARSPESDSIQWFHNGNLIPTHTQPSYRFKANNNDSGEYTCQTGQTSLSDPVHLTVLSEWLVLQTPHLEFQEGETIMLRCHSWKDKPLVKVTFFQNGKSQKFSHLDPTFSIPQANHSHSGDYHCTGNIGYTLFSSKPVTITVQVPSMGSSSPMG

T2: FcγRIIb, extracellular domain with C-terminal His tag (human, UniProt P31994 43-217)
T2 construct: extracellular domain; Expressed in FreeStyle293 cells; analyte in the Biacore assay; also called FcgRIIb; 2b; not shown: His tag at the C terminus
T2 sequence (looked up): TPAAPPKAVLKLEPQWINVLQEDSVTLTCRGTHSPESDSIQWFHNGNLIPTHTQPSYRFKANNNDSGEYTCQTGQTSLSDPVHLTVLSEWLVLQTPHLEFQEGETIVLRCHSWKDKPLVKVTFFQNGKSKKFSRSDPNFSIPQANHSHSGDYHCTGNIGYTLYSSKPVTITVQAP

B1: GpH7-A5/GpH7-B3 variant P329_15Y/GpL16-k0 (antibody, human IgG1, kappa)
heavy 1: not shown
heavy 2: not shown
light: DIVMTQSPLSLPVTPGEPASISCQASESLVHSNRNTYLHWYLQKPGQSPQLLIYKVSNRFSGVPDRFSGSGSGTDFTLKISRVEAEDVGVYYCSQNTHVPPTFGQGTKVEIERTVAAPSVFIFPPSDEQLKSGTASVVCLLNNFYPREAKVQWKVDNALQSGNSQESVTEQDSKDSTYSLSSTLTLSKADYEKHKVYACEVTHQGLSSPVTKSFNRGEC
notes: He Ab; IgG1; mutation in one H chain only; also called He Ab
B2: GpH7-A5/GpH7-B3 variant S324_18N/GpL16-k0 (antibody, human IgG1, kappa)
heavy 1: not shown
heavy 2: not shown
light: B1 light
notes: as for B1
B3: GpH7-A5/GpH7-B3 variant I332_18N/GpL16-k0 (antibody, human IgG1, kappa)
heavy 1: not shown
heavy 2: not shown
light: B1 light
notes: as for B1
B4: GpH7-A5/GpH7-B3 variant I332_12R/GpL16-k0 (antibody, human IgG1, kappa)
heavy 1: not shown
heavy 2: not shown
light: B1 light
notes: as for B1
B5: GpH7-A5/GpH7-B3 variant P329_19Q/GpL16-k0 (antibody, human IgG1, kappa)
heavy 1: not shown
heavy 2: not shown
light: B1 light
notes: as for B1
B6: GpH7-A5/GpH7-B3 variant N325_11K/GpL16-k0 (antibody, human IgG1, kappa)
heavy 1: not shown
heavy 2: not shown
light: B1 light
notes: as for B1
B7: GpH7-A5/GpH7-B3 variant S324_09D/GpL16-k0 (antibody, human IgG1, kappa)
heavy 1: not shown
heavy 2: not shown
light: B1 light
notes: as for B1
B8: GpH7-A5/GpH7-B3 variant P329_12R/GpL16-k0 (antibody, human IgG1, kappa)
heavy 1: not shown
heavy 2: not shown
light: B1 light
notes: as for B1
B9: GpH7-A5/GpH7-B3 variant Y300_12R/GpL16-k0 (antibody, human IgG1, kappa)
heavy 1: not shown
heavy 2: not shown
light: B1 light
notes: as for B1
B10: GpH7-A5/GpH7-B3 variant Y300_13S/GpL16-k0 (antibody, human IgG1, kappa)
heavy 1: not shown
heavy 2: not shown
light: B1 light
notes: as for B1
B11: GpH7-A5/GpH7-B3 variant P329_16H/GpL16-k0 (antibody, human IgG1, kappa)
heavy 1: not shown
heavy 2: not shown
light: B1 light
notes: as for B1
B12: GpH7-A5/GpH7-B3 variant E333_01G/GpL16-k0 (antibody, human IgG1, kappa)
heavy 1: not shown
heavy 2: not shown
light: B1 light
notes: as for B1
B13: GpH7-A5/GpH7-B3 variant S324_11K/GpL16-k0 (antibody, human IgG1, kappa)
heavy 1: not shown
heavy 2: not shown
light: B1 light
notes: as for B1
B14: GpH7-A5/GpH7-B3 variant P329_07I/GpL16-k0 (antibody, human IgG1, kappa)
heavy 1: not shown
heavy 2: not shown
light: B1 light
notes: as for B1
B15: GpH7-A5/GpH7-B3 variant S324_01G/GpL16-k0 (antibody, human IgG1, kappa)
heavy 1: not shown
heavy 2: not shown
light: B1 light
notes: as for B1
B16: GpH7-A5/GpH7-B3 variant P329_14T/GpL16-k0 (antibody, human IgG1, kappa)
heavy 1: not shown
heavy 2: not shown
light: B1 light
notes: as for B1
B17: GpH7-A5/GpH7-B3 variant N325_12R/GpL16-k0 (antibody, human IgG1, kappa)
heavy 1: not shown
heavy 2: not shown
light: B1 light
notes: as for B1
B18: GpH7-A5/GpH7-B3 variant S324_19Q/GpL16-k0 (antibody, human IgG1, kappa)
heavy 1: not shown
heavy 2: not shown
light: B1 light
notes: as for B1
B19: GpH7-A5/GpH7-B3 variant P329_04F/GpL16-k0 (antibody, human IgG1, kappa)
heavy 1: not shown
heavy 2: not shown
light: B1 light
notes: as for B1

biological target: T1, FcγRIIa H (FcγRIIa type H, His at …); experiment: SPR Biacore; He/Con_2aH divided by He/Con_2b (reference: FcgRIIb)

| He_2aH/2b (IIaH/IIb) | Binder |
| --- | --- |
| 1.5 | B1 |
| 1.21 | B2 |
| 1.22 | B3 |
| 1.8 | B4 |
| 1.26 | B5 |
| 1.55 | B6 |
| 1.23 | B7 |
| 2.63 | B8 |
| 1.34 | B9 |
| 1.64 | B10 |
| 1.69 | B11 |
| 1.2 | B12 |
| 1.34 | B13 |
| 1.56 | B14 |
| 1.22 | B15 |
| 1.65 | B16 |
| 1.56 | B17 |
| 1.44 | B18 |
| 1.38 | B19 |

biological target: T2, FcγRIIb, extracellular domain with …; experiment: SPR Biacore, captured antibody, FcgR analyte; GpH7-A5/GpH7-B3/GpL16-k0 = 100

| He/Con_2b | Binder |
| --- | --- |
| 45.7 % of HeCon Ab | B1 |
| 81.1 % of HeCon Ab | B2 |
| 89.9 % of HeCon Ab | B3 |
| 48.9 % of HeCon Ab | B4 |
| 30.7 % of HeCon Ab | B5 |
| 10.4 % of HeCon Ab | B6 |
| 85.8 % of HeCon Ab | B7 |
| 17.6 % of HeCon Ab | B8 |
| 41.2 % of HeCon Ab | B9 |
| 53.9 % of HeCon Ab | B10 |
| 39.1 % of HeCon Ab | B11 |
| 81.4 % of HeCon Ab | B12 |
| 68.6 % of HeCon Ab | B13 |
| 34.6 % of HeCon Ab | B14 |
| 81.1 % of HeCon Ab | B15 |
| 37.9 % of HeCon Ab | B16 |
| 19.1 % of HeCon Ab | B17 |
| 66.8 % of HeCon Ab | B18 |
| 32.2 % of HeCon Ab | B19 |

biological target: T1, FcγRIIa H (FcγRIIa type H, His at …); experiment: as above

| He/Con_2aH | Binder |
| --- | --- |
| 68.7 % of HeCon Ab | B1 |
| 97.8 % of HeCon Ab | B2 |
| 110 % of HeCon Ab | B3 |
| 87.8 % of HeCon Ab | B4 |
| 38.7 % of HeCon Ab | B5 |
| 16.1 % of HeCon Ab | B6 |
| 106 % of HeCon Ab | B7 |
| 46.4 % of HeCon Ab | B8 |
| 55.4 % of HeCon Ab | B9 |
| 88.1 % of HeCon Ab | B10 |
| 66.1 % of HeCon Ab | B11 |
| 97.7 % of HeCon Ab | B12 |
| 92.2 % of HeCon Ab | B13 |
| 53.8 % of HeCon Ab | B14 |
| 98.8 % of HeCon Ab | B15 |
| 62.4 % of HeCon Ab | B16 |
| 29.9 % of HeCon Ab | B17 |
| 96 % of HeCon Ab | B18 |
| 44.5 % of HeCon Ab | B19 |
